{"source": "paper PMC3964825", "about": "(Biochemistry, 2013)", "key": {"native gel or EMSA": {"biological_target": "the molecule itself", "test": "native gel or EMSA"}, "native MS": {"biological_target": "the molecule itself", "test": "native MS"}}, "note": "“And” between values parts separate entries of the source, which are not always exact repeats. Equal values may be shown once."}
{"protein": "EZH2-EED heterodimer (FLAG-EZH2–6×HIS-EED) (complex) chain 1: not shown chain 2: not shown", "values": [{"measurement": "stoichiometry N", "setting": "native gel or EMSA", "value": "≤ 4"}, {"measurement": "stoichiometry N", "setting": "native MS", "value": "2 and 3"}]}
